Patent US20190175744A1 (Merck Sharp & Dohme, published 2019)
Starred links: 1 amine or outer side, 2 acyl side, 3 side chain; linkers in the order of their positions; H or OH if unused. Non-standard residues stand in square brackets, D forms with d. Groups on a side chain read outwards from the residue. No end group written: not given here. *: point of attachment. C16N3 = 16-azido-hexadecanoic acid, [N-]=[N+]=NCCCCCCCCCCCCCCCC(=O)*; C5N3 = 5-azido pentinoic acid, [N-]=[N+]=NCCCCC(=O)*; C18 diacid = O=C(O)CCCCCCCCCCCCCCCCC(=O)*; Lys(N3) = [N-]=[N+]=NCCCC[C@H](N)C(=O)O; γGlu = O=C(O)[C@H](CCC(=O)[*:2])N[*:1]; Met(O2) = CS(=O)(=O)CC[C@H](N)C(=O)O; Palmitoyl = CCCCCCCCCCCCCCCC(=O)*; AEEA = NCCOCCOCC(=O)O; Aib = CC(C)(N)C(=O)O

Legend:
[1] = biological target: human GLP-1 receptor (human, UniProt P43220 24-463); assay: cell-based or functional assay
[2] = biological target: human glucagon receptor (human, UniProt P47871 26-477); assay: cell-based or functional assay

HXQGTFTSDKSKYLDERAAQDFVXWLLDT (D-Ser (s) at 2; Lys 10 K(γEγEC16); Nle(εN3) at 24; C-terminal amide) [PEP74]
hGLP1R EC50 (cAMP activity assay) [1]: 0.05 nM

B1: PEP22 (peptide)
peptide: H[Aib]QGTFTSDK([γGlu-γGlu-Palmitoyl])SKYLD[Aib]RAAQDFV[Lys(N3)]WLLDTK[γGlu]-NH2
modifications: N-terminus assumed
SMILES: CCCCCCCCCCCCCCCC(=O)N[C@@H](CCC(=O)N[C@@H](CCC(=O)NCCCC[C@H](NC(=O)[C@H](CC(=O)O)NC(=O)[C@H](CO)NC(=O)[C@@H](NC(=O)[C@H](Cc1ccccc1)NC(=O)[C@@H](NC(=O)CNC(=O)[C@H](CCC(N)=O)NC(=O)C(C)(C)NC(=O)[C@@H](N)Cc1c[nH]cn1)[C@@H](C)O)[C@@H](C)O)C(=O)N[C@@H](CO)C(=O)N[C@@H](CCCCN)C(=O)N[C@@H](Cc1ccc(O)cc1)C(=O)N[C@@H](CC(C)C)C(=O)N[C@@H](CC(=O)O)C(=O)NC(C)(C)C(=O)N[C@@H](CCCNC(=N)N)C(=O)N[C@@H](C)C(=O)N[C@@H](C)C(=O)N[C@@H](CCC(N)=O)C(=O)N[C@@H](CC(=O)O)C(=O)N[C@@H](Cc1ccccc1)C(=O)N[C@H](C(=O)N[C@@H](CCCCN=[N+]=[N-])C(=O)N[C@@H](Cc1c[nH]c2ccccc12)C(=O)N[C@@H](CC(C)C)C(=O)N[C@@H](CC(C)C)C(=O)N[C@@H](CC(=O)O)C(=O)N[C@H](C(=O)N[C@@H](CCCCN)C(=O)N[C@@H](CCC(N)=O)C(=O)O)[C@@H](C)O)C(C)C)C(=O)O)C(=O)O
hGLP1R EC50 (cAMP activity assay) [1]: 0.07 nM

H[dS]QGTFTSDK([γGlu-γGlu-Palmitoyl])SKYLDERAAK([AEEA-C5N3])DFVQWLLDT-NH2 [PEP16]
hGCGR_EC50 (cAMP activity assay) [2]: 0.05 nM | hGLP1R EC50 (cAMP activity assay) [1]: 0.06 nM

H[Aib]QGTFTSDK([γGlu-γGlu-Palmitoyl])SKYLD[Aib]RAAQDFVQWLLDTKK([AEEA-C5N3])-NH2 [PEP20]
hGCGR_EC50 (cAMP activity assay) [2]: 0.1 nM | hGLP1R EC50 (cAMP activity assay) [1]: 0.05 nM

B2: PEP13 (peptide)
peptide: H[dS]QGTFTSDK([γGlu-γGlu-Palmitoyl])SKYLDSRRAHDFV[Lys(N3)]WLLNT-NH2
modifications: N-terminus assumed
SMILES: CCCCCCCCCCCCCCCC(=O)N[C@@H](CCC(=O)N[C@@H](CCC(=O)NCCCC[C@H](NC(=O)[C@H](CC(=O)O)NC(=O)[C@H](CO)NC(=O)[C@@H](NC(=O)[C@H](Cc1ccccc1)NC(=O)[C@@H](NC(=O)CNC(=O)[C@H](CCC(N)=O)NC(=O)[C@@H](CO)NC(=O)[C@@H](N)Cc1c[nH]cn1)[C@@H](C)O)[C@@H](C)O)C(=O)N[C@@H](CO)C(=O)N[C@@H](CCCCN)C(=O)N[C@@H](Cc1ccc(O)cc1)C(=O)N[C@@H](CC(C)C)C(=O)N[C@@H](CC(=O)O)C(=O)N[C@@H](CO)C(=O)N[C@@H](CCCNC(=N)N)C(=O)N[C@@H](CCCNC(=N)N)C(=O)N[C@@H](C)C(=O)N[C@@H](Cc1c[nH]cn1)C(=O)N[C@@H](CC(=O)O)C(=O)N[C@@H](Cc1ccccc1)C(=O)N[C@H](C(=O)N[C@@H](CCCCN=[N+]=[N-])C(=O)N[C@@H](Cc1c[nH]c2ccccc12)C(=O)N[C@@H](CC(C)C)C(=O)N[C@@H](CC(C)C)C(=O)N[C@@H](CC(N)=O)C(=O)N[C@H](C(N)=O)[C@@H](C)O)C(C)C)C(=O)O)C(=O)O
hGCGR_EC50 (cAMP activity assay) [2]: 0.04 nM | hGLP1R EC50 (cAMP activity assay) [1]: 0.1 nM

B3: PEP28 (peptide)
peptide: H[Aib]QGTFTSDYSKYLD[Aib]RAAQDFVQWLLDTKK([AEEA-AEEA-γGlu-C16N3])-NH2
modifications: N-terminus assumed
SMILES: CC(C)C[C@H](NC(=O)[C@H](Cc1c[nH]c2ccccc12)NC(=O)[C@H](CCC(N)=O)NC(=O)[C@@H](NC(=O)[C@H](Cc1ccccc1)NC(=O)[C@H](CC(=O)O)NC(=O)[C@H](CCC(N)=O)NC(=O)[C@H](C)NC(=O)[C@H](C)NC(=O)[C@H](CCCNC(=N)N)NC(=O)C(C)(C)NC(=O)[C@H](CC(=O)O)NC(=O)[C@H](CC(C)C)NC(=O)[C@H](Cc1ccc(O)cc1)NC(=O)[C@H](CCCCN)NC(=O)[C@H](CO)NC(=O)[C@H](Cc1ccc(O)cc1)NC(=O)[C@H](CC(=O)O)NC(=O)[C@H](CO)NC(=O)[C@@H](NC(=O)[C@H](Cc1ccccc1)NC(=O)[C@@H](NC(=O)CNC(=O)[C@H](CCC(N)=O)NC(=O)C(C)(C)NC(=O)[C@@H](N)Cc1c[nH]cn1)[C@@H](C)O)[C@@H](C)O)C(C)C)C(=O)N[C@@H](CC(C)C)C(=O)N[C@@H](CC(=O)O)C(=O)N[C@H](C(=O)N[C@@H](CCCCN)C(=O)N[C@@H](CCCCNC(=O)COCCOCCNC(=O)COCCOCCNC(=O)CC[C@H](NC(=O)CCCCCCCCCCCCCCCN=[N+]=[N-])C(=O)O)C(N)=O)[C@@H](C)O
hGCGR_EC50 (cAMP activity assay) [2]: 0.17 nM | hGLP1R EC50 (cAMP activity assay) [1]: 0.16 nM

H[Aib]QGTFTSDK([γGlu-γGlu-Palmitoyl])SKYLDERAAQDFV[Lys(N3)]WLLDGRG-NH2 [PEP2]
hGCGR_EC50 (cAMP activity assay) [2]: 0.11 nM

HXQGTFTSDKSKYLDERAAQDFVXWLLXT (D-Ser (s) at 2; Lys 10 K(γEγEC16); Nle(εN3) at 24; γE at 28; C-terminal amide) [PEP11]
hGLP1R EC50 (cAMP activity assay) [1]: 0.06 nM

H[dS]QGTFTSDK([γGlu-γGlu-Palmitoyl])SKYLDERAAK([AEEA-AEEA-C5N3])DFVQWLLDT-NH2 [PEP17]
hGCGR_EC50 (cAMP activity assay) [2]: 0.06 nM | hGLP1R EC50 (cAMP activity assay) [1]: 0.05 nM

HXQGTFTSDKSKYLDERAAQDFVXWLLDT (D-Ser (s) at 2; Lys 10 K(PEG2PEG2γEC18-OH); Nle(εN3) at 24; C-terminal amide) [PEP29]
hGCGR_EC50 (cAMP activity assay) [2]: 3.26 nM | hGLP1R EC50 (cAMP activity assay) [1]: 3.28 nM

B4: PEP6 (peptide)
peptide: H[Aib]QGTFTSDK([γGlu-γGlu-Palmitoyl])SKYLD[Aib]RRAQDFVQWLLDT[Lys(N3)][γGlu]-NH2
modifications: N-terminus assumed
SMILES: CCCCCCCCCCCCCCCC(=O)N[C@@H](CCC(=O)N[C@@H](CCC(=O)NCCCC[C@H](NC(=O)[C@H](CC(=O)O)NC(=O)[C@H](CO)NC(=O)[C@@H](NC(=O)[C@H](Cc1ccccc1)NC(=O)[C@@H](NC(=O)CNC(=O)[C@H](CCC(N)=O)NC(=O)C(C)(C)NC(=O)[C@@H](N)Cc1c[nH]cn1)[C@@H](C)O)[C@@H](C)O)C(=O)N[C@@H](CO)C(=O)N[C@@H](CCCCN)C(=O)N[C@@H](Cc1ccc(O)cc1)C(=O)N[C@@H](CC(C)C)C(=O)N[C@@H](CC(=O)O)C(=O)NC(C)(C)C(=O)N[C@@H](CCCNC(=N)N)C(=O)N[C@@H](CCCNC(=N)N)C(=O)N[C@@H](C)C(=O)N[C@@H](CCC(N)=O)C(=O)N[C@@H](CC(=O)O)C(=O)N[C@@H](Cc1ccccc1)C(=O)N[C@H](C(=O)N[C@@H](CCC(N)=O)C(=O)N[C@@H](Cc1c[nH]c2ccccc12)C(=O)N[C@@H](CC(C)C)C(=O)N[C@@H](CC(C)C)C(=O)N[C@@H](CC(=O)O)C(=O)N[C@H](C(=O)N[C@@H](CCCCN=[N+]=[N-])C(=O)N[C@@H](CCC(N)=O)C(=O)O)[C@@H](C)O)C(C)C)C(=O)O)C(=O)O
hGCGR_EC50 (cAMP activity assay) [2]: 0.07 nM | hGLP1R EC50 (cAMP activity assay) [1]: 0.17 nM

H[dS]QGTFTSDYSKYLDERAAK([AEEA-AEEA-γGlu-C16N3])DFVQWLLDT-NH2 [PEP26]
hGCGR_EC50 (cAMP activity assay) [2]: 0.12 nM | hGLP1R EC50 (cAMP activity assay) [1]: 0.12 nM

B5: PEP27 (peptide)
peptide: H[dS]QGTFTSDYSKYLDERAAQK([AEEA-AEEA-γGlu-C16N3])FVQWLLDT-NH2
modifications: N-terminus assumed
SMILES: CC(C)C[C@H](NC(=O)[C@H](Cc1ccc(O)cc1)NC(=O)[C@H](CCCCN)NC(=O)[C@H](CO)NC(=O)[C@H](Cc1ccc(O)cc1)NC(=O)[C@H](CC(=O)O)NC(=O)[C@H](CO)NC(=O)[C@@H](NC(=O)[C@H](Cc1ccccc1)NC(=O)[C@@H](NC(=O)CNC(=O)[C@H](CCC(N)=O)NC(=O)[C@@H](CO)NC(=O)[C@@H](N)Cc1c[nH]cn1)[C@@H](C)O)[C@@H](C)O)C(=O)N[C@@H](CC(=O)O)C(=O)N[C@@H](CCC(=O)O)C(=O)N[C@@H](CCCNC(=N)N)C(=O)N[C@@H](C)C(=O)N[C@@H](C)C(=O)N[C@@H](CCC(N)=O)C(=O)N[C@@H](CCCCNC(=O)COCCOCCNC(=O)COCCOCCNC(=O)CC[C@H](NC(=O)CCCCCCCCCCCCCCCN=[N+]=[N-])C(=O)O)C(=O)N[C@@H](Cc1ccccc1)C(=O)N[C@H](C(=O)N[C@@H](CCC(N)=O)C(=O)N[C@@H](Cc1c[nH]c2ccccc12)C(=O)N[C@@H](CC(C)C)C(=O)N[C@@H](CC(C)C)C(=O)N[C@@H](CC(=O)O)C(=O)N[C@H](C(N)=O)[C@@H](C)O)C(C)C
hGCGR_EC50 (cAMP activity assay) [2]: 0.39 nM | hGLP1R EC50 (cAMP activity assay) [1]: 0.06 nM

B6: PEP21 (peptide)
peptide: HXQGTFTSDKSKYLDXRAAQDFVQWLLDTKK
modifications: Aib (U) at 2 and 16; Lys 10 K(γEγEC16); Lys 31 K(PEG2PEG2-C5N3); C-terminal amide
hGCGR_EC50 (cAMP activity assay) [2]: 0.08 nM | hGLP1R EC50 (cAMP activity assay) [1]: 0.07 nM

H[Aib]QGTFTSDYSKYLDARAAK([AEEA-AEEA-γGlu-C18 diacid])DFV[Lys(N3)]WL[Met(O2)]DT-NH2 [PEP30]
hGCGR_EC50 (cAMP activity assay) [2]: 2.27 nM | hGLP1R EC50 (cAMP activity assay) [1]: 0.5 nM

H[dS]QGTFTSDK([γGlu-γGlu-Palmitoyl])SKYLDERAAQ[Lys(N3)]FVQWLLDT-NH2 [PEP1]
hGCGR_EC50 (cAMP activity assay) [2]: 0.01 nM

H[Aib]QGTFTSDK([γGlu-γGlu-Palmitoyl])SKYLD[Aib]RAAQDFV[Lys(N3)]WL[Met(O2)]KGRG-NH2 [PEP3]
hGCGR_EC50 (cAMP activity assay) [2]: 0.07 nM

HXQGTFTSDYSKYLDERAAQDFVKWLLDT (D-Ser (s) at 2; Lys 24 K(PEG2PEG2γE-C16N3); C-terminal amide) [PEP25]
hGCGR_EC50 (cAMP activity assay) [2]: 0.04 nM | hGLP1R EC50 (cAMP activity assay) [1]: 0.05 nM

HXQGTFTSDKSKYLDERAAQDFVKWLLDT (D-Ser (s) at 2; Lys 10 K(γEγEC16); Lys 24 K(PEG2-C5N3); C-terminal amide) [PEP14]
hGCGR_EC50 (cAMP activity assay) [2]: 0.05 nM | hGLP1R EC50 (cAMP activity assay) [1]: 0.07 nM
